Test system: Escherichia coli TOP10
Test: shrunken log2 fold change of peptide-encoding DNA abundance (4.5 h post-induction vs induction); higher = less antimicrobial activity (less host growth inhibition)
Conditions: time post-induction: 4.5 h; library: site-saturation at positions 5, 18, 19, 20
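Also: peptides expressed intracellularly from a pBAD plasmid library in pooled LB shake-flask culture, induced with 0.3% L-arabinose, DNA abundance read by NGS, three biological replicates, DESeq2 with apeglm shrinkage.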

Sequence	shrunken log2 fold change
RRIRRRPPRLPRPRPRPSYPPRP	-0.115
RRIRDRPPRLPRPRPRPLINPRP	0.125
RRIRSRPPRLPRPRPRPHNAPRP	-0.197
RRIRFRPPRLPRPRPRPAGYPRP	0.00702
RRIRGRPPRLPRPRPRPCQDPRP	-0.233
RRIRWRPPRLPRPRPRPYHYPRP	0.0463
RRIRMRPPRLPRPRPRPHCQPRP	-0.0624
RRIRIRPPRLPRPRPRPALHPRP	-0.268
RRIRSRPPRLPRPRPRPLFCPRP	-0.146
RRIRQRPPRLPRPRPRPFIKPRP	-0.382
RRIRRRPPRLPRPRPRPDWPPRP	0.556
RRIRSRPPRLPRPRPRPYSIPRP	-0.376
RRIRQRPPRLPRPRPRPGACPRP	0.206
RRIRWRPPRLPRPRPRPVMWPRP	0.236
RRIRGRPPRLPRPRPRPHRQPRP	0.0397
RRIRPRPPRLPRPRPRPEPCPRP	0.215
RRIRFRPPRLPRPRPRPIFGPRP	0.449
RRIRPRPPRLPRPRPRPNSFPRP	-0.251
RRIRDRPPRLPRPRPRPWQNPRP	-0.0811
RRIRTRPPRLPRPRPRPTKVPRP	-0.134
RRIRGRPPRLPRPRPRPTEFPRP	0.327
RRIRNRPPRLPRPRPRPPQCPRP	-0.000221
RRIRPRPPRLPRPRPRPQFLPRP	-0.164
RRIRHRPPRLPRPRPRPNVKPRP	-0.112
RRIRHRPPRLPRPRPRPNGMPRP	-0.0133

Sequence	shrunken log2 fold change
RRIRHRPPRLPRPRPRPDLCPRP	0.00487
RRIRERPPRLPRPRPRPYNSPRP	-0.0287
RRIRQRPPRLPRPRPRPPPEPRP	0.952
RRIRARPPRLPRPRPRPKSYPRP	-0.145
RRIRERPPRLPRPRPRPYIYPRP	-0.254
RRIRCRPPRLPRPRPRPLAVPRP	0.0263
RRIRSRPPRLPRPRPRPECVPRP	0.673
RRIRQRPPRLPRPRPRPWRLPRP	-0.0759
RRIRSRPPRLPRPRPRPQSTPRP	-0.24
RRIRQRPPRLPRPRPRPHPYPRP	-0.0131
RRIRVRPPRLPRPRPRPTRLPRP	0.568
RRIRWRPPRLPRPRPRPCTAPRP	0.119
RRIRQRPPRLPRPRPRPWHWPRP	0.107
RRIRYRPPRLPRPRPRPFVMPRP	-1.07
RRIRCRPPRLPRPRPRPVAGPRP	0.0113
RRIRIRPPRLPRPRPRPQRWPRP	0.304
RRIRPRPPRLPRPRPRPRMRPRP	0.92
RRIRYRPPRLPRPRPRPVDMPRP	-0.0154
RRIRFRPPRLPRPRPRPMYRPRP	-0.29
RRIRGRPPRLPRPRPRPWVRPRP	0.151
RRIRDRPPRLPRPRPRPAVIPRP	-0.0132
RRIRRRPPRLPRPRPRPCVDPRP	0.163
RRIRERPPRLPRPRPRPCPVPRP	0.0397
RRIRKRPPRLPRPRPRPLVGPRP	0.0773
RRIRIRPPRLPRPRPRPSYMPRP	-1.53

Sequence	shrunken log2 fold change
RRIRGRPPRLPRPRPRPTAMPRP	2.78
RRIRKRPPRLPRPRPRPAYEPRP	0.0198
RRIRGRPPRLPRPRPRPMQPPRP	1.77
RRIRTRPPRLPRPRPRPCQYPRP	-0.293
RRIRGRPPRLPRPRPRPNSQPRP	0.271
RRIRSRPPRLPRPRPRPQCPPRP	-0.172
RRIRYRPPRLPRPRPRPYNVPRP	-0.0198
RRIRWRPPRLPRPRPRPKVGPRP	0.0351
RRIRVRPPRLPRPRPRPDIDPRP	-0.205
RRIRSRPPRLPRPRPRPRQHPRP	0.169
RRIRNRPPRLPRPRPRPATAPRP	0.0174
RRIRIRPPRLPRPRPRPGRHPRP	0.0231
RRIRERPPRLPRPRPRPWVPPRP	0.0883
RRIRMRPPRLPRPRPRPLLTPRP	2.33
RRIRKRPPRLPRPRPRPCIEPRP	-0.00715
RRIRFRPPRLPRPRPRPGFQPRP	0.0959
RRIRFRPPRLPRPRPRPRHQPRP	0.0747
RRIRTRPPRLPRPRPRPTLSPRP	0.106
RRIRYRPPRLPRPRPRPHAKPRP	-0.0339
RRIRERPPRLPRPRPRPEHSPRP	-0.312
RRIRMRPPRLPRPRPRPMCLPRP	0.292
RRIRIRPPRLPRPRPRPIPFPRP	-1.35
RRIRERPPRLPRPRPRPYMIPRP	-0.259
RRIRIRPPRLPRPRPRPLAHPRP	-0.379
RRIRCRPPRLPRPRPRPRKSPRP	0.126

Sequence	shrunken log2 fold change
RRIRIRPPRLPRPRPRPWWIPRP	-0.0829
RRIRVRPPRLPRPRPRPWHEPRP	-0.127
RRIRDRPPRLPRPRPRPHPGPRP	0.163
RRIRARPPRLPRPRPRPKDWPRP	0.578
RRIRSRPPRLPRPRPRPLILPRP	-0.628
RRIRIRPPRLPRPRPRPNMCPRP	0.0488
RRIRCRPPRLPRPRPRPWGVPRP	0.122
RRIRSRPPRLPRPRPRPSHMPRP	-0.993
RRIRRRPPRLPRPRPRPDRQPRP	-0.114
RRIRGRPPRLPRPRPRPVGHPRP	0.453
RRIRGRPPRLPRPRPRPCTVPRP	0.032
RRIRQRPPRLPRPRPRPKYRPRP	-0.0976
RRIRIRPPRLPRPRPRPGEMPRP	-0.00568
RRIRSRPPRLPRPRPRPSCHPRP	-0.245
RRIRTRPPRLPRPRPRPVFWPRP	0.386
RRIRRRPPRLPRPRPRPANIPRP	0.256
RRIRYRPPRLPRPRPRPIQCPRP	-0.0422
RRIRVRPPRLPRPRPRPDKLPRP	-0.0511
RRIRCRPPRLPRPRPRPLGCPRP	0.347
RRIRNRPPRLPRPRPRPSTTPRP	-0.47
RRIRQRPPRLPRPRPRPHPIPRP	-0.133
RRIRTRPPRLPRPRPRPDEMPRP	-0.023
RRIRWRPPRLPRPRPRPAAFPRP	0.334
RRIRDRPPRLPRPRPRPRYNPRP	-0.513
RRIRYRPPRLPRPRPRPLFTPRP	-0.962

Sequence	shrunken log2 fold change
RRIRMRPPRLPRPRPRPLWQPRP	0.304
RRIRSRPPRLPRPRPRPMGDPRP	0.00987
RRIRCRPPRLPRPRPRPMGRPRP	0.162
RRIRTRPPRLPRPRPRPGADPRP	0.301
RRIRVRPPRLPRPRPRPYALPRP	-0.848
RRIRPRPPRLPRPRPRPCQSPRP	-0.123
RRIRDRPPRLPRPRPRPPHVPRP	0.0772
RRIRLRPPRLPRPRPRPGGSPRP	0.259
RRIRGRPPRLPRPRPRPLRMPRP	0.848
RRIRCRPPRLPRPRPRPNITPRP	-0.884
RRIRDRPPRLPRPRPRPKYLPRP	-0.131
RRIRMRPPRLPRPRPRPTYQPRP	-0.063
RRIRTRPPRLPRPRPRPENYPRP	-0.00973
RRIRCRPPRLPRPRPRPENWPRP	0.145
RRIRQRPPRLPRPRPRPVHPPRP	0.211
RRIRNRPPRLPRPRPRPQCIPRP	-0.135
RRIRRRPPRLPRPRPRPPWCPRP	0.294
RRIRSRPPRLPRPRPRPTPGPRP	0.451
RRIRPRPPRLPRPRPRPKESPRP	0.13
RRIRLRPPRLPRPRPRPETSPRP	-0.0221
RRIRWRPPRLPRPRPRPVPKPRP	0.524
RRIRQRPPRLPRPRPRPSNGPRP	-0.687
RRIRARPPRLPRPRPRPGTRPRP	0.532
RRIRVRPPRLPRPRPRPMWLPRP	0.0511
RRIRSRPPRLPRPRPRPHIYPRP	-0.607

Source: the supplement of paper PMC9112550, “Optimization of the antimicrobial peptide Bac7 by deep mutational scanning” (BMC Biology, 2022)
